Reference: patent US20210122826A1 (MIT, published 2021)
Changes are numbered by the printed parent chain.

What was measured:
Assay in all cases: flow, Jurkat
Human KLRF1 = target: T1, Human KLRF1 (human, UniProt Q9NZS2 1-231)
T1 construct: also called hKLRF1
T1 sequence: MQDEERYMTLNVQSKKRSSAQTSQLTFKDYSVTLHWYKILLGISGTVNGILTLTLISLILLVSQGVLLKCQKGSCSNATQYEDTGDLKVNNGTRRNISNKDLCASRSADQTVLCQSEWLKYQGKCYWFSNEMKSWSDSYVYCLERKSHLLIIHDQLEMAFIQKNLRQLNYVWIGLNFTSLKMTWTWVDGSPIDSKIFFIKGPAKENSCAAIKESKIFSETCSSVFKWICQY

Human CD94 = target: T2, Human CD94 (human, UniProt Q13241 1-179)
T2 construct: also called hCD94
T2 sequence: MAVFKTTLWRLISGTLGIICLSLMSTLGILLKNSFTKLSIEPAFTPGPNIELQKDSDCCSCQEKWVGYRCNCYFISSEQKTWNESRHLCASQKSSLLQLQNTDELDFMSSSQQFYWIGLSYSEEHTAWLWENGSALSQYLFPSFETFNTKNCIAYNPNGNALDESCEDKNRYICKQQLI

Human KLRF2 = target: T3, Human KLRF2 (human, UniProt D3W0D1 1-207)
T3 construct: also called hKLRF2
T3 sequence: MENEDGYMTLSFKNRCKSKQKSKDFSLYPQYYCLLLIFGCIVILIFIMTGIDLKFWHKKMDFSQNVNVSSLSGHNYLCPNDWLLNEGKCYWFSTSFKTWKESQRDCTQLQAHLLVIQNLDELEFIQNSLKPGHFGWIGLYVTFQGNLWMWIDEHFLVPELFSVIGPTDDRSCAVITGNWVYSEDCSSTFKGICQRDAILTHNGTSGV

Human Clec12B = target: T4, Human Clec12B (human, UniProt Q2HXU8 1-276)
T4 construct: also called hClec12B
T4 sequence: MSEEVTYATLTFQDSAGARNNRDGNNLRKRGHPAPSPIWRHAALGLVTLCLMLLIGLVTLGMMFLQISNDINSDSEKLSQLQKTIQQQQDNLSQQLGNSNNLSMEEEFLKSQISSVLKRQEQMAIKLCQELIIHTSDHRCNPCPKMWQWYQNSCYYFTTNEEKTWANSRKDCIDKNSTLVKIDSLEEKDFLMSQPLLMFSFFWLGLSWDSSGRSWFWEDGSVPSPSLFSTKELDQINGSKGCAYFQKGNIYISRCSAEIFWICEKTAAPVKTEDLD

Human Clec7A = target: T5, Human Clec7A (human, UniProt Q9BXN2 1-247)
T5 construct: also called hClec7A
T5 sequence: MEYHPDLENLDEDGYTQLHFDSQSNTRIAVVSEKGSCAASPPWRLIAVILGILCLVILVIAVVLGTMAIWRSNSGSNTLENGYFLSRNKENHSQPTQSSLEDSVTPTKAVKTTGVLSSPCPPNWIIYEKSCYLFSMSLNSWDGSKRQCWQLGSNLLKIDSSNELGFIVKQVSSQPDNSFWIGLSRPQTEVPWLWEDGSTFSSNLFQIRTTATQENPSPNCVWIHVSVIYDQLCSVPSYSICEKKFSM

Human KLRG1 = target: T6, Human KLRG1 (human, UniProt Q96E93 1-195)
T6 construct: also called hKLRG1
T6 sequence: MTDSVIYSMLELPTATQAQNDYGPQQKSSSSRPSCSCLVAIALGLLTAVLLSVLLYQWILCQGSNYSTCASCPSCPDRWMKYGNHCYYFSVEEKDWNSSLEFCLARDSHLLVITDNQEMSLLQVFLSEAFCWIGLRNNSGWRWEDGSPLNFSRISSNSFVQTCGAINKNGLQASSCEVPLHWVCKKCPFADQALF

Human OLR1 = target: T7, Human OLR1 (human, UniProt P78380 1-273)
T7 construct: also called hOLR1

Human Clec5A = target: T8, Human Clec5A (human, UniProt Q9NY25 1-188)
T8 construct: also called hClec5A
T8 sequence: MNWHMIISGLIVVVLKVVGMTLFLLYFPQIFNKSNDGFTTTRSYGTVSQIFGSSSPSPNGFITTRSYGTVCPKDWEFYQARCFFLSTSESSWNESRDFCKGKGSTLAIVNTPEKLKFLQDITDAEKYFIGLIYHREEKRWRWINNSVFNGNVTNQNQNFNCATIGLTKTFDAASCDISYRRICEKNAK

Human Clec9A = target: T9, Human Clec9A (human, UniProt Q6UXN8 1-241)
T9 construct: also called hClec9A
T9 sequence (Q6UXN8 whole entry): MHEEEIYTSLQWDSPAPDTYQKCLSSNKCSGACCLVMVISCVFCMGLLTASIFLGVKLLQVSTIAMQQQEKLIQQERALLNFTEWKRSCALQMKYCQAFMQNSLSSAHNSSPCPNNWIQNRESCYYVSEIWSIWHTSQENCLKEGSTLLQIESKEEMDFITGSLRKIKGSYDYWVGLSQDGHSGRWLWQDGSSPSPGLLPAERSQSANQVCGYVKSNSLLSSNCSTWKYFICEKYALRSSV

Human CD209 = target: T10, Human CD209 (human, UniProt Q9NNX6 1-404)
T10 construct: also called hCD209
T10 sequence: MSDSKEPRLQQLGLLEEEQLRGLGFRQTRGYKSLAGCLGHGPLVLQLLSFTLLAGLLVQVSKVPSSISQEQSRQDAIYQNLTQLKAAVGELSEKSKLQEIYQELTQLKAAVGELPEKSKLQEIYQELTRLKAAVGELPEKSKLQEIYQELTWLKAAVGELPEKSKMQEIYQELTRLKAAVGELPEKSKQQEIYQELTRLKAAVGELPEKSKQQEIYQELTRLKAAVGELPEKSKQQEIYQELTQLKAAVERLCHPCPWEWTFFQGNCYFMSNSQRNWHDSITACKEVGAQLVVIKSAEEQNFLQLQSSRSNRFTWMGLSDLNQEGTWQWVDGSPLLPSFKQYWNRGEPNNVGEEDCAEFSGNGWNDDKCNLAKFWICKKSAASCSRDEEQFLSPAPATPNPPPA

Human Clec4E = target: T11, Human Clec4E (human, UniProt Q9ULY5 1-219)
T11 construct: also called hClec4E
T11 sequence: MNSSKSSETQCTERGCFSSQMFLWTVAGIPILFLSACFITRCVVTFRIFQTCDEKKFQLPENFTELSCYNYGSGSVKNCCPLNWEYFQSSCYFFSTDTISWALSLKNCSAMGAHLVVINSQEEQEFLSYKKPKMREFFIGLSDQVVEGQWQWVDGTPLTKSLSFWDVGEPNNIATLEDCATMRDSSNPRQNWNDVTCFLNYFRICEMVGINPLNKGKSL

Human Clec10A = target: T12, Human Clec10A (human, UniProt Q8IUN9 1-316)
T12 construct: also called hClec10A
T12 sequence: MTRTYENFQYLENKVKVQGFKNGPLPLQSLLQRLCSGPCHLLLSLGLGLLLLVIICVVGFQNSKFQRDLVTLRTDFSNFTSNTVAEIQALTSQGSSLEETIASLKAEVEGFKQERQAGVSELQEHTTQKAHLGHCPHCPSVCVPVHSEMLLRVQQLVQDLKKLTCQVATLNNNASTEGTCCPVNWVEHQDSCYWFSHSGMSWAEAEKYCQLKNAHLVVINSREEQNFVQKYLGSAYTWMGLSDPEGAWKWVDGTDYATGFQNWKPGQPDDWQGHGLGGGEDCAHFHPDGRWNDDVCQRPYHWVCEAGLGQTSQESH

Measured: binding result

B1: KW1.2.1 (antibody, V domains shown)
VH: EVQLVESGGGLVQPGGSLRLSCAASGSTFSSYAMSWVRQAPGKGLEWVSTISGSGGSTYYADSVKGRFTISRDNSRNTLYLQMNSLRAEDTAVYYCARGGLIPSGFDYWGQGTLVTVSS
VL: DIQMTQSPSSPSASVGDRVTITCRASQSISSYLNWYQQKPGKAPKLLIYAASSLLSGVPSRFSGSGSGTDFTLTISSLQPEDFATYYCQQTYSTPLTFGQGTKVEIK
no binding (tested: 100 nM): all assays above

B2: KM12.2.3 (antibody, human IgG1, V domains shown)
VH: EVQLVESGGGLVQPGGSLRLSCAASGFTFSSYAMSWIRQAPGKGLEWVSAISGSGGSIYYADSVKGRFTISRDNSKNTLYLQMNSLRAEDTAVYYCARGYSDSYFYGPYYTFDYWGQGTLVTVSS
VL: B1 VL with P11L, S28G, L55Q, P59S, T91S, S93N
no binding (tested: 100 nM): all assays above

B3: KM12.4.7 (antibody, V domains shown)
VH: B2 VH with S21P, N84D
VL: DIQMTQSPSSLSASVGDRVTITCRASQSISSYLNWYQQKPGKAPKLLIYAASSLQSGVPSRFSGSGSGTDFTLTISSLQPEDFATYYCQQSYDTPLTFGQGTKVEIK
no binding (tested: 100 nM): all assays above

B4: KW7.2.2 (antibody, V domains shown)
VH: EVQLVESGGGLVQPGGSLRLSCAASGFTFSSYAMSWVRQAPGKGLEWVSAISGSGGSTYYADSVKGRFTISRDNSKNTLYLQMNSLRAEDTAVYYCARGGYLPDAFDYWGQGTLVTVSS
VL: B1 VL with P11L, K45R, L46F, L55Q
no binding (tested: 100 nM): all assays above

B5: KW1.3.12 (antibody, human IgG1, V domains shown)
VH: B1 VH with S27F
VL: B1 VL with P11L, T94A
no binding (tested: 100 nM): all assays above

B6: KW7.3.7 (antibody, V domains shown)
VH: B1 VH with S27F, T50A, I51T, V64A, R76K, L101Y, I102L, S104D, G105A, Q111R
VL: B1 VL with P11L, R24W, K39E, L55Q
no binding (tested: 100 nM): all assays above
